US20230391883A1 (BEIGENE SWITZERLAND, published 2023)
Numbering of substitutions follows the chain as printed.

T1: TIGIT-huIgG1 (human, UniProt Q495A1 22-141)
T1 construct: also called Human Fc-tagged TIGIT; TIGIT-huIgG1 fusion protein
T1 sequence: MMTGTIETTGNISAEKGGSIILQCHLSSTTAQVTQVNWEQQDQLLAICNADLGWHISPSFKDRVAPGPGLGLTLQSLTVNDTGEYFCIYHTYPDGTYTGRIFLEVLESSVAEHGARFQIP

T2: full-length human TIGIT on cells (human, UniProt Q495A1 22-244)
T2 construct: Used for engineered cells (NK92mi/TIGIT, NK92MI/TIGIT-DNAM-1, Jurkat/TIGIT) and for TIGIT on human blood cells; also called native TIGIT; huTIGIT
T2 sequence: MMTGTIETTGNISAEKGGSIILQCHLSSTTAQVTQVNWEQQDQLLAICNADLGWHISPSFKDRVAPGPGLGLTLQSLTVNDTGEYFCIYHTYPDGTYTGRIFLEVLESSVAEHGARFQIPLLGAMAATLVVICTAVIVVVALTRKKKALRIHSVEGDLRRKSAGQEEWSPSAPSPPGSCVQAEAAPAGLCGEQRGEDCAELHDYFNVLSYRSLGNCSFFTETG

T3: human TIGIT (form in the assay not stated) (human, UniProt Q495A1 22-141, limits assumed)
T3 construct: whole entry named
T3 sequence: T1 sequence

T4: TIGIT-mIgG2a (human; mouse, UniProt Q495A1 22-141)
T4 construct: also called soluble TIGIT; TIGIT-mIgG2a fusion protein
T4 sequence: T1 sequence

T5: TIGIT-his (human, UniProt Q495A1 22-141)
T5 construct: also called human TIGIT; not shown: his tag
T5 sequence: T1 sequence

T6: humanized TIGIT of humanized TIGIT knock-in mice, on CD3+ splenocytes
T6 chain: T1 sequence

B1: mu1217 (antibody, V domains shown)
VH: EVKLVESGGGLVQPGGSLKLSCATSGFTFSDYYMYWIRQTPEKRLEWVAYITKGGGSTYYPDTVKGRFTISRDNAKNTLYLQVSRLKSEDTAIYYCARQTNYDFTMDYWGQGTSVTVSS
VL: DIVMTQSHKFMSTSVGDRVSIICKASQDVGTSVAWYQQKPGQSPNLLIYWASARHTGVPDRFTGSGSGTDFTLTISNVQSEDLADYFCQQYSSYPLTFGAGTKLELK
notes: Purified murine hybridoma antibody; also called murine anti-TIGIT mAb mu1217
B2: ch1217 (antibody, V domains shown)
VH: B1 VH
VL: B1 VL
notes: Chimeric: mu1217 variable domains fused to human IgG1mf/kappa constant regions; not shown: human kappa light chain constant region
B3: hu1217-1-1 (antibody, V domains shown)
VH: EVQLVESGGGLVQPGGSLRLSCATSGFTFSDYYMYWIRQAPGKGLEWVAYITKGGGSTYYPDSVKGRFTISRDNAKNTLYLQMNSLRAEDTAVYYCARQTNYDFTMDYWGQGTLVTVSS
VL: EIVMTQSPATLSVSPGERATLSCKASQDVGTSVAWYQQKPGQAPRLLIYWASARHTGVPARFSGSGSGTEFTLTISSLQSEDFAVYYCQQYSSYPLTFGGGTKVEIK
notes: Full-length human IgG1mf/kappa format; not shown: human kappa light chain constant region
B4: hu1217-2-2/IgG1mf (antibody, V domains shown)
VH: B3 VH with T24A, I37V
VL: B3 VL with V58I
notes: not shown: human kappa light chain constant region
B5: hu1217-2-2/IgG1wt (antibody, V domains shown)
VH: B3 VH with T24A, I37V
VL: B3 VL with V58I
notes: Humanized version with a wild-type IgG1 Fc region and the same VH and VL as hu1217-2-2/IgG1mf
B6: hu1217-2-2 (as named in Examples 12 to 14, Fc format not stated) (antibody, V domains shown)
VH: B3 VH with T24A, I37V
VL: B3 VL with V58I
notes: kept apart from m7 and m8 for that reason; also called Antibody hu1217-2-2

Columns and labels:
[1] = target: T1, TIGIT-huIgG1; test: SPR (BIAcore T-200); human Fc-tagged TIGIT captured by anti-human IgG, antibody as analyte; column head prints nM, koff/kon gives M
Method: (§1) Briefly, anti-human IgG antibody was immobilized on an activated CM5 biosensor chip (Cat. No.: BR100530, GE Life Sciences). Human Fc-tagged TIGIT was flowed over the chip surface and captured by anti-human IgG antibody. Then a serial dilution (0.12 nM to 10 nM) of purified murine antibodies were flowed over the chip surface and changes in surface plasmon resonance signals were analyzed to calculate the association rates (kₒₙ) and dissociation rates (koff) by using the one-to-one Langmuir binding model (BIA Evaluation Software, GE Life Sciences). The equilibrium dissociation constant (KD) was calculated as the ratio koff/kₒₙ.

[2] = target: T1, TIGIT-huIgG1; test: SPR (BIAcore T-200); human Fc-tagged TIGIT captured by anti-human IgG, antibody as analyte
Method: as §1

[3] = target: T2, full-length human TIGIT on cells; test: flow cytometry on living NK92mi/TIGIT cells, goat anti-human IgG detection; Test 1
Method: (§2) To evaluate the binding activity of anti-TIGIT antibodies to native TIGIT on living cells, NK92mi cells were engineered to over-express human TIGIT. Living NK92mi/TIGIT cells were seeded in 96-well plate and were incubated with a series of dilutions of anti-TIGIT antibodies. Goat anti-Human IgG was used as secondary antibody to detect antibody binding to the cell surface. EC₅₀ values for dose-dependent binding to human native TIGIT were determined by fitting the dose-response data to the four-parameter logistic model with GraphPad Prism. As show in FIG. 4A-B and Table 6.

[4] = target: T3, human TIGIT (form in the assay not …); test: SPR; antibody captured on anti-human Fc surface, TIGIT analyte not named; Test 1
From the text: (§3) For affinity determination, antibodies were captured by anti-human Fc surface, and used in the affinity-assay based on surface plasmon resonance (SPR) technology.

[5] = target: T3, human TIGIT (form in the assay not …); test: SPR; antibody captured on anti-human Fc surface, TIGIT analyte not named; mean of Tests 1 and 2
From the text: as §3

[6] = target: T3, human TIGIT (form in the assay not …); test: SPR; antibody captured on anti-human Fc surface, TIGIT analyte not named; Test 2
From the text: as §3

[7] = target: T2, full-length human TIGIT on cells; test: flow cytometry on living NK92mi/TIGIT cells, goat anti-human IgG detection; Test 2
Method: as §2

[8] = target: T4, TIGIT-mIgG2a; test: flow cytometry; blockade of soluble TIGIT binding to PVR on HEK293/PVR cells
From the text: (§4) To determine whether anti-TIGIT antibodies could block TIGIT-PVR and TIGIT-PVR-L2 interactions, HEK293 cells were engineered to express high levels of PVR or PVR-L2. The resultant cell lines were named HEK293/PVR and HEK293/PVR-L2, respectively. […] The blockade of TIGIT-ligand interaction was quantitatively measured by adding serially diluted anti-TIGIT antibodies.

[9] = target: T3, human TIGIT (form in the assay not …); test: SPR; antibody captured on anti-human Fc surface, TIGIT analyte not named; Test 1; Test 1
From the text: as §3

[10] = target: T4, TIGIT-mIgG2a; test: flow cytometry; blockade of soluble TIGIT binding to PVR-L2 on HEK293/PVR-L2 cells
From the text: as §4

[11] = target: T5, TIGIT-his; test: SPR; antibody immobilized on CM5 chip, TIGIT-his as analyte, HBS pH 7.4; column head prints nM, koff/kon gives M
[12] = target: T5, TIGIT-his; test: SPR; antibody immobilized on CM5 chip, TIGIT-his as analyte, HBS pH 6.0; column head prints nM, koff/kon gives M
[13] = target: T5, TIGIT-his; test: SPR; antibody immobilized on CM5 chip, TIGIT-his as analyte, HBS pH 7.4
[14] = target: T5, TIGIT-his; test: SPR; antibody immobilized on CM5 chip, TIGIT-his as analyte, HBS pH 6.0
[15] = target: T6, humanized TIGIT of humanized TIGIT …; test: TIGIT receptor occupancy assay on CD3+ splenocytes from humanized TIGIT knock-in mice
[16] = target: T2, full-length human TIGIT on cells; test: TIGIT receptor occupancy assay on CD3+ human peripheral blood mononuclear cells; CD3+ human peripheral blood mononuclear cells

Row | Binder | EC50 [3] | Kd [4] | koff [4] | kon [4] | Kd [5] | Kd [6] | koff [6] | kon [6] | EC50 [7] | IC50 [8] | IC50 [10] | also measured
1 | B1 | – | – | – | – | – | – | – | – | – | – | – | Kd [1]: 0.00915 nM; koff [2]: 3.96e-05 s⁻¹; kon [2]: 4.33e+06 M⁻¹ s⁻¹
2 | B2 | 0.1 µg/mL | 0.283 nM | 0.000443 s⁻¹ | 1.56e+06 M⁻¹ s⁻¹ | – | – | – | – | – | – | – | –
3 | B3 | 0.114 µg/mL | 0.309 nM | 0.000448 s⁻¹ | 1.45e+06 M⁻¹ s⁻¹ | 0.415 nM | 0.52 nM | 0.000694 s⁻¹ | 1.33e+06 M⁻¹ s⁻¹ | 0.084 µg/mL | – | – | –
4 | B4 | – | 0.127 nM | 0.000229 s⁻¹ | – | 0.266 nM | 0.404 nM | 0.000608 s⁻¹ | 1.5e+06 M⁻¹ s⁻¹ | 0.068 µg/mL | 0.55 µg/mL | 0.18 µg/mL | kon [9]: 1.8e+06 M⁻¹ s⁻¹
5 | B5 | – | – | – | – | – | – | – | – | – | 0.64 µg/mL | 0.25 µg/mL | Kd [11]: 0.219 nM; Kd [12]: 0.0299 nM; koff [13]: 9.53e-05 s⁻¹; kon [13]: 434000 M⁻¹ s⁻¹; koff [14]: 7.6e-05 s⁻¹; kon [14]: 2.54e+06 M⁻¹ s⁻¹
6 | B6 | – | – | – | – | – | – | – | – | – | – | – | EC50 [15]: 0.0488 µg/mL; EC50 [16]: 0.0632 µg/mL
